According to US20230057012A1, “TGFB INHIBITORS AND USE THEREOF” (Scholar Rock, Inc., priority 2020, published 2023):
Entries after “also recorded” stand apart in the source; their conditions may differ.

Tests used:
hGARP-proTGFβ1 [1] = target: T1, hGARP-proTGFβ1 (Homo sapiens, UniProt P01137); assay: Biacore SPR Fab binding kinetics
T1 construct: biotin (the antigen complex is biotinylated); made in house
Procedure: (§1) Among these antibodies, Ab42, Ab46 and Ab50 were selected for further evaluation. Surface plasmon resonance (SPR) was used to measure binding kinetics using a BIACORE® system. Association and dissociation kinetics of Fab fragments of Ab42, Ab46, Ab50 and a reference antibody (shown as “Ref”), to antigen complexes were measured, and resulting equilibrium dissociation constants (KD) are provided below. Experiments were carried out with eight types of LLCs, namely, hLTBP1-proTGFβ1, mLTBP1-proTGFβ1, hLTBP3-proTGFβ1, mLTBP3-proTGFβ1, hGARP-proTGFβ1, mGARP-proTGFβ1, hLRRC33-proTGFβ1 and mLRRC33-proTGFβ1.
(§2) In vitro binding kinetics (on/off rates) were measured in Biacore-based assays and affinities were determined against all four known LLCs using both human and murine counterparts for each. Based on the association rate and dissociation rate, KD was calculated for each. In addition, relative affinities, as compared to the reference antibody as a benchmark, were calculated and expressed as “fold difference” relative to the reference antibody.
(§3) A BIACORE® system was employed to determine the monovalent binding affinity and the kinetic parameters for antigen binding of test antibodies. The binding kinetics were evaluated by surface plasmon resonance using Biacore 8K (GE Healthcare). A Biotin CAP sensor chip was used to capture the biotinylated antigens. Fabs at various concentrations (0 nM, 0.62 nM, 1.25 nM, 2.5 nM, 5 nM and 10 nM) were injected over the captured antigens. Multi-cycle kinetics was employed where each analyte concentration was injected in a separate cycle and the sensor chip surface was regenerated after each cycle. All the assays were carried out in freshly prepared 1× HBS-EP+ buffer (10 mM HEPES, 150 mM NaCl, 3 mM EDTA, 0.05% Tween20, pH 7.4). Data for all the analyte concentrations for each interaction were fit globally to a 1:1 binding model to obtain the kinetic parameters. The Sensorgram for 0 nM analyte concentration was used as reference.
(§4) The binding kinetics of antibody interactions with each of the antigen complexes, human LTBP1-ProTGFβ1, human LTBP3-ProTGFβ1, human GARP-ProTGFβ1, and human LRRC33-ProTGFβ1, were evaluated by surface plasmon resonance. Binding kinetics was evaluated by surface plasmon resonance using a BIACORE® 8K (GE) instrument. Biotinylated antigens were captured on a Biotin CAP chip and the Fab fragments of the antibodies were used as analytes. Sensorgrams for Fab binding at variable concentrations (0.6-10 nM) were globally fit to obtain the kinetic parameters.
(§5) Binding kinetics for the Fabs were evaluated against each of the four human antigens, LTBP1-ProTGFβ1, LTBP3-ProTGFβ1, GARP-ProTGFβ1, and LRRC33-ProTGFβ1. […] These experiments were repeated.

hLTBP3-proTGFβ1 [2] = target: T2, hLTBP3-proTGFβ1 (Homo sapiens, UniProt P01137); assay: Biacore SPR Fab binding kinetics
T2 construct: biotin (the antigen complex is biotinylated); made in house
T2 sequence (P01137 30-390): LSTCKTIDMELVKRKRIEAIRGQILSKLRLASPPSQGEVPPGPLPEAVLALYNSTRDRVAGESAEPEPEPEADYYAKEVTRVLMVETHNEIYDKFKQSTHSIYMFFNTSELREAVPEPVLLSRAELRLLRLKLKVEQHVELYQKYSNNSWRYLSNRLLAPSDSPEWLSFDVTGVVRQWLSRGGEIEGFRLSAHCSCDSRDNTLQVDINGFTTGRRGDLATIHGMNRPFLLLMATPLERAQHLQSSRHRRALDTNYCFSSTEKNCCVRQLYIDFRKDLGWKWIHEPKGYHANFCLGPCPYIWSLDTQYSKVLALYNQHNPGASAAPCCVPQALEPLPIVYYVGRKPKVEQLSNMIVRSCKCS
T2 sequence (Q9NS15 44-1303 partner): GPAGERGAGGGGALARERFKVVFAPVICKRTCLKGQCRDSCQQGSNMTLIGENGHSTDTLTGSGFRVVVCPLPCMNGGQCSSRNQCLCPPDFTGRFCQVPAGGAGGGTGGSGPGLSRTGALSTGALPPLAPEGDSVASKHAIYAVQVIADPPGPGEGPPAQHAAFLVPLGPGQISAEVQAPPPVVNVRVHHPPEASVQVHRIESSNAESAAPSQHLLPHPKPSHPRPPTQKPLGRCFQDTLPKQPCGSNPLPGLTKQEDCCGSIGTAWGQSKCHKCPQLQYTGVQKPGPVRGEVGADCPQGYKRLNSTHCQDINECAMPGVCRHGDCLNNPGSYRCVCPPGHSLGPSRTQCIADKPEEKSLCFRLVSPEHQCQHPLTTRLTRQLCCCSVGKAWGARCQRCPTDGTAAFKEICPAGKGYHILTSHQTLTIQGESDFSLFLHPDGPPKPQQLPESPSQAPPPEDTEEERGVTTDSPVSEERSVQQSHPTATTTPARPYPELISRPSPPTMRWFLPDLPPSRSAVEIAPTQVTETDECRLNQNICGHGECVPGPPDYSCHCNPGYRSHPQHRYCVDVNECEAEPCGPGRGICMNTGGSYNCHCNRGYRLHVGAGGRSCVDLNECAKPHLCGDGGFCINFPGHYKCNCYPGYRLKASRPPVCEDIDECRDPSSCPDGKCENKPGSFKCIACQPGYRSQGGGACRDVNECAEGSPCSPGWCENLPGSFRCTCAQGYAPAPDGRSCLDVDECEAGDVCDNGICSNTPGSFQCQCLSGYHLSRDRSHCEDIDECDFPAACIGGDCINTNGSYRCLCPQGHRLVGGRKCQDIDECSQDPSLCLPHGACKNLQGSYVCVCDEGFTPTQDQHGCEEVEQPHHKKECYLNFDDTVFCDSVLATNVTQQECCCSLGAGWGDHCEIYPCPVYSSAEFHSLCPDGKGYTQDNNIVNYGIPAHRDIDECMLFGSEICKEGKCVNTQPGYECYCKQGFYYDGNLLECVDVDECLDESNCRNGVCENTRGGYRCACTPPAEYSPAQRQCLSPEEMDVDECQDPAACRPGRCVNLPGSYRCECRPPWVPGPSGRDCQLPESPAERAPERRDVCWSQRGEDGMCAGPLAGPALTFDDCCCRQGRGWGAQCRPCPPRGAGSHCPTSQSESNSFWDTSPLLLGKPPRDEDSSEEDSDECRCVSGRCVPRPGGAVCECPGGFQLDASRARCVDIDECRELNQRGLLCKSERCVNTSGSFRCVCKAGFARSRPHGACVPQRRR
Procedure: as §1, §2, §3, §4, §5

hLTBP1-proTGFβ1 [3] = target: T3, hLTBP1-proTGFβ1 (Homo sapiens, UniProt P01137); assay: Biacore SPR Fab binding kinetics
T3 construct: biotin (the antigen complex is biotinylated); made in house
T3 sequence (P01137 30-390): as the sequence (P01137 30-390) above
T3 sequence (Q14766 347-1721 partner limits assumed): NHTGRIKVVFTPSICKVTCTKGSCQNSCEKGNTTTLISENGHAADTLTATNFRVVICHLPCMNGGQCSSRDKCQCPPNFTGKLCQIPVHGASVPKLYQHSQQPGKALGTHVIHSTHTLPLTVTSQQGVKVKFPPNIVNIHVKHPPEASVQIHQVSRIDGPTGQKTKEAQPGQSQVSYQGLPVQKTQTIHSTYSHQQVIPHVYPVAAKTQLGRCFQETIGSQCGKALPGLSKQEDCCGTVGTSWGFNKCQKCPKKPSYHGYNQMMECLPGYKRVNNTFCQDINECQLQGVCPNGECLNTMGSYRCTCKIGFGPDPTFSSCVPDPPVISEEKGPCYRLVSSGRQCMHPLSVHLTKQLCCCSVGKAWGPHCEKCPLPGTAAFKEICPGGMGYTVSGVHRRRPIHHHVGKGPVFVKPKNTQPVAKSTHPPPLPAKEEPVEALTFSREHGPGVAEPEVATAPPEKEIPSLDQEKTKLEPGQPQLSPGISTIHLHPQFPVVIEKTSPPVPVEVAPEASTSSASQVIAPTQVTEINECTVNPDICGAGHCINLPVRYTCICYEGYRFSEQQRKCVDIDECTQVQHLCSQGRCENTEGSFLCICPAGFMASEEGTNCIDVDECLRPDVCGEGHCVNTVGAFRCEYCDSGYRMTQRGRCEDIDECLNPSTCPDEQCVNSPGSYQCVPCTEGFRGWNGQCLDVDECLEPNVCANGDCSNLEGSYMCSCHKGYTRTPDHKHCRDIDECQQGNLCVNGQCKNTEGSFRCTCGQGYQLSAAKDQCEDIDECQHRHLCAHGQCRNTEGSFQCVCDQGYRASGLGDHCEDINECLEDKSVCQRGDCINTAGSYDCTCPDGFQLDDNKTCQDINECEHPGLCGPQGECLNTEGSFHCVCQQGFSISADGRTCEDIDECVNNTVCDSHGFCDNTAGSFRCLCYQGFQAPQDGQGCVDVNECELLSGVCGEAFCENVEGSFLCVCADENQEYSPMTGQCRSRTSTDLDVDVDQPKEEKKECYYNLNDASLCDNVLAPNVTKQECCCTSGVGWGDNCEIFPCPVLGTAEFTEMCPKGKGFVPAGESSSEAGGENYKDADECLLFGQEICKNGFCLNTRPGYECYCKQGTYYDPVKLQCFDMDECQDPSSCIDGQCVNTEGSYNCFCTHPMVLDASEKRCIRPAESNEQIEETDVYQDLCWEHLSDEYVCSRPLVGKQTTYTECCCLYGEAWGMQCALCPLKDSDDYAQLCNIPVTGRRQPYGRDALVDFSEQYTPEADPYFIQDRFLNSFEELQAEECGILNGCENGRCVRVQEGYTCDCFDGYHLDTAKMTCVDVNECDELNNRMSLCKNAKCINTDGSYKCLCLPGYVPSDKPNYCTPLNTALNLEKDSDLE
Procedure: as §1, §2, §3, §4, §5

hLRRC33-proTGFβ1 = target: T4, hLRRC33-proTGFβ1 (Homo sapiens, UniProt P01137); assay: Biacore SPR Fab binding kinetics
T4 construct: biotin (the antigen complex is biotinylated); made in house
T4 sequence (P01137 30-390): as the sequence (P01137 30-390) above
T4 sequence (Q86YC3 with tags, fused parts or gaps partner limits assumed): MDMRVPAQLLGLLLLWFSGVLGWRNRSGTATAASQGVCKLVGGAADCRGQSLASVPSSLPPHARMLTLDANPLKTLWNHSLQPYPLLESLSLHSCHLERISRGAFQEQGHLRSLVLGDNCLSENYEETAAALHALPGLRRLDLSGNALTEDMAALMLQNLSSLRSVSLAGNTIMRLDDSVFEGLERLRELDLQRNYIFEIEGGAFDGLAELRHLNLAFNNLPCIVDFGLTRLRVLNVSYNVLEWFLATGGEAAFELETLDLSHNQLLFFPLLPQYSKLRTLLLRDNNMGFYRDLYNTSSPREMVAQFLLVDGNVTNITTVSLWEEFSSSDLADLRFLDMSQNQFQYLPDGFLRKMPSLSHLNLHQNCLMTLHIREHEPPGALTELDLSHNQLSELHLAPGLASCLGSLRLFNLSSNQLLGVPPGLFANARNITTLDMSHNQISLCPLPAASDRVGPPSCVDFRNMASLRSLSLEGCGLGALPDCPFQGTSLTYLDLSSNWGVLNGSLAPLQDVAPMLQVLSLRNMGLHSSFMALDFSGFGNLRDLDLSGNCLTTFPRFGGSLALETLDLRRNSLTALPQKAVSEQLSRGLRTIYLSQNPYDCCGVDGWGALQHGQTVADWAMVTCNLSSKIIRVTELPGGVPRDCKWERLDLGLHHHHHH
Procedure: as §1, §2, §3, §4, §5

CDHFD mice = assay: choline-deficient high fat diet (CDHFD) liver fibrosis model; type: in vivo
LLCs = assay: ELISA binding to LLCs; details: hIgG4; FIGS. 3 and 4
LLCs, sequence (P01137 30-390): as the sequence (P01137 30-390) above

[4] = system: Wistar-Han rats on a CDHF diet; assay: CDHFD target engagement study in rats; type: in vivo
Procedure: A similar study was run in 10-12 week old male Wistar-Han rats as follows: rats were fed on a CDHF diet for 12 weeks and then randomized. A first dose of the negative control (“HuNEG” IgG4, 30 mg/kg, n=6) or Ab46 (3, 10, and 30 mg/kg, n=8) was given on Day 1, and a second dose was given on Day 3. Treatment with a TGF-β type 1 receptor (ALK5) kinase inhibitor (ALK5i, 10 mg/kg) was used as a positive control. Tissue collection (left lateral lobe) was performed on Day 5. All rats had detectable serum antibody exposure. […] The study was repeated with a broader dose range: rats were fed on a CDHF diet for 12 weeks and then randomized. A single dose of 0.3 mg/kg, 1 mg/kg, 3 mg/kg, 10 mg/kg, or 30 mg/kg of Ab46 was given on Day 1, and tissue collection was performed after 48 hours.

hGARP-proTGFβ1 [5] = target: T1, hGARP-proTGFβ1; assay: Octet binding kinetics (BLI); details: Fab in solution, immobilized biotinylated antigen
Procedure: (§6) The table below exemplifies binding kinetics of the listed antibodies (e.g., Fabs) obtained by OCTET®-based binding assays. The experiments were conducted with immobilized, biotinylated antigen and Fab fragments (e.g., test antibodies) in solution.
(§7) In some embodiments, the binding affinity of an antibody, or antigen-binding portion thereof, to an antigen (e.g., protein complex), such as presenting molecule-proTGFβ1 complexes, is determined using an Octet assay. In some embodiments, an Octet assay is an assay that determines one or more a kinetic parameters indicative of binding between an antibody and antigen. In some embodiments, an OCTET® system (FORTEBIO®, Menlo Park, Calif.) is used to determine the binding affinity of an antibody, or antigen-binding portion thereof, to presenting molecule-proTGFβ1 complexes. For example, binding affinities of antibodies may be determined using the FORTEBIO® Octet QKe dip and read label free assay system utilizing bio-layer interferometry. In some embodiments, antigens are immobilized to biosensors (e.g., streptavidin-coated biosensors) and the […] are presented in solution at high concentration (50 μg/mL) to measure binding interactions. In some embodiments, the binding affinity of an antibody, or antigen-binding portion thereof, to a presenting molecule-proTGFβ1 complex is determined using the protocol outlined in Table 14.
(§8) The protocol used to measure the affinity of the antibodies to the complexes provided herein is summarized in Table 14 below, and a summary list of affinity profiles of exemplary antibodies of the present disclosure is provided in Table 6 herein.

hLTBP3-proTGFβ1 [6] = target: T2, hLTBP3-proTGFβ1; assay: Octet binding kinetics (BLI); details: Fab in solution, immobilized biotinylated antigen
Procedure: as §6, §7, §8

hLTBP1-proTGFβ1 [7] = target: T3, hLTBP1-proTGFβ1; assay: Octet binding kinetics (BLI); details: Fab in solution, immobilized biotinylated antigen
Procedure: as §6, §7, §8

mLRRC33-proTGFβ1 [8] = target: T5, mLRRC33-proTGFβ1 (Homo sapiens, UniProt P01137); assay: Biacore SPR Fab binding kinetics; set-up: species or system mouse; details: Table 12
T5 construct: biotin (the antigen complex is biotinylated); made in house
Procedure: as §1, §2, §3

mGARP-proTGFβ1 [9] = target: T6, mGARP-proTGFβ1 (Homo sapiens, UniProt P01137); assay: Biacore SPR Fab binding kinetics; set-up: species or system mouse; details: Table 10
T6 construct: biotin (the antigen complex is biotinylated); made in house
Procedure: as §1, §2, §3

mLTBP1-proTGFβ1 [10] = target: T7, mLTBP1-proTGFβ1; assay: Biacore SPR Fab binding kinetics; set-up: species or system mouse; details: Table 6
T7 construct: biotin (the antigen complex is biotinylated); made in house
Procedure: as §1, §2, §3

mLTBP3-proTGFβ1 [11] = target: T8, mLTBP3-proTGFβ1; assay: Biacore SPR Fab binding kinetics; set-up: species or system mouse; details: Table 8
T8 construct: biotin (the antigen complex is biotinylated); made in house
Procedure: as §1, §2, §3

mLTBP1-proTGFβ1 [12] = target: T9, mLTBP1-proTGFβ1 (Homo sapiens, UniProt P01137); assay: Biacore SPR Fab binding kinetics; set-up: species or system mouse; details: Table 6
T9 construct: biotin (the antigen complex is biotinylated); made in house
Procedure: as §1, §2, §3

mGARP-proTGFβ1 [13] = target: T10, mGARP-proTGFβ1; assay: Biacore SPR Fab binding kinetics; set-up: species or system mouse; details: Table 10
T10 construct: biotin (the antigen complex is biotinylated); made in house
Procedure: as §1, §2, §3

mLRRC33-proTGFβ1 [14] = target: T11, mLRRC33-proTGFβ1; assay: Biacore SPR Fab binding kinetics; set-up: species or system mouse; details: Table 12
T11 construct: biotin (the antigen complex is biotinylated); made in house
Procedure: as §1, §2, §3

mLTBP3-proTGFβ1 [15] = target: T12, mLTBP3-proTGFβ1 (Homo sapiens, UniProt P01137); assay: Biacore SPR Fab binding kinetics; set-up: species or system mouse; details: Table 8
T12 construct: biotin (the antigen complex is biotinylated); made in house
Procedure: as §1, §2, §3

T1 sequence (P01137 30-390): as above
T1 sequence (Q14392 18-627 partner limits assumed): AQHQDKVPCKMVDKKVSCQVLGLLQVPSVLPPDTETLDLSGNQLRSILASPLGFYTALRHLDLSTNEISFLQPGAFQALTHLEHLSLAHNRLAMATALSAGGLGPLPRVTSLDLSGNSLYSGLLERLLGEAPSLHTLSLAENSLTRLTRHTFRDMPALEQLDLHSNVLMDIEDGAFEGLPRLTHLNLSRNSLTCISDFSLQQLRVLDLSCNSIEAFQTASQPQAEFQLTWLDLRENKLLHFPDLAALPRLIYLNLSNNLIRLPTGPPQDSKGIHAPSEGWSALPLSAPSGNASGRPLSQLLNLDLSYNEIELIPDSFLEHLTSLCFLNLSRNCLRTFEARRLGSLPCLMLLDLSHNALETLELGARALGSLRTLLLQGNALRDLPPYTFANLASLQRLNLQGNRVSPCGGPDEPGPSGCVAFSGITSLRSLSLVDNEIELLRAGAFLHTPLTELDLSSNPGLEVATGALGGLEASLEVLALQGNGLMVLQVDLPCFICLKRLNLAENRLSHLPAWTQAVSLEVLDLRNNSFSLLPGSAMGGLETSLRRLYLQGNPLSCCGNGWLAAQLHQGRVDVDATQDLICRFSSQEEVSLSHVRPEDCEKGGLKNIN

KOFF (hGARP-proTGFβ1 [1]; Biacore 8K, Table 22): 0.000359 s⁻¹
kon (hGARP-proTGFβ1 [1]; Biacore 8K, Table 22): 1.89e+06 M⁻¹ s⁻¹
KOFF (hGARP-proTGFβ1 [1]; Biacore, Table 9): 0.000222 s⁻¹
KON (hGARP-proTGFβ1 [1]; Biacore, Table 9): 9.65E+05 M^−1/s^−1
KOFF (hLTBP3-proTGFβ1 [2]; Biacore 8K, Table 22): 0.000195 s⁻¹
kon (hLTBP3-proTGFβ1 [2]; Biacore 8K, Table 22): 1.78e+06 M⁻¹ s⁻¹
KOFF (hLTBP3-proTGFβ1 [2]; Biacore, Table 7): 0.000128 s⁻¹
KON (hLTBP3-proTGFβ1 [2]; Biacore, Table 7): 1.00E+06 M^−1/s^−1
KOFF (hLTBP1-proTGFβ1 [3]; Biacore 8K, Table 22): 8.52e-05 s⁻¹
kon (hLTBP1-proTGFβ1 [3]; Biacore 8K, Table 22): 2.44e+06 M⁻¹ s⁻¹
KOFF (hLTBP1-proTGFβ1 [3]; Biacore, Table 5): 8.81e-05 s⁻¹
KON (hLTBP1-proTGFβ1 [3]; Biacore, Table 5): 1.75E+06 M^−1/s^−1
time bound to the antigen relative to the reference antibody (hLTBP1-proTGFβ1 [3]; SPR, FIG. 2, antigen not given): more than 50 times
t1/2 (dissociation) (hLTBP1-proTGFβ1 [3]; SPR, FIG. 2, antigen not given, values fit the KOFF of Table 5): over 130 minutes
KOFF (hLRRC33-proTGFβ1; Biacore 8K, Table 22): 0.000162 s⁻¹
kon (hLRRC33-proTGFβ1; Biacore 8K, Table 22): 1.36e+06 M⁻¹ s⁻¹
KOFF (hLRRC33-proTGFβ1; Biacore, Table 11): 0.000128 s⁻¹
KON (hLRRC33-proTGFβ1; Biacore, Table 11): 1.52E+06 M^−1/s^−1
binding by ELISA (LLCs): Specific and selective binding
KOFF (hGARP-proTGFβ1 [5]): 0.00029 s⁻¹
KON (hGARP-proTGFβ1 [5]): 7.03E+05 M^−1/s^−1
KOFF (hLTBP3-proTGFβ1 [6]): 0.000438 s⁻¹
KON (hLTBP3-proTGFβ1 [6]): 6.19E+05 M^−1/s^−1
KOFF (hLTBP1-proTGFβ1 [7]): 4.98e-05 s⁻¹
KON (hLTBP1-proTGFβ1 [7]): 7.03E+05 M^−1/s^−1
KON (mLRRC33-proTGFβ1 [8]): 1.26E+06 M^−1/s^−1
KON (mGARP-proTGFβ1 [9]): 1.02E+06 M^−1/s^−1
KOFF (mLTBP1-proTGFβ1 [10]): 9.87e-05 s⁻¹
KOFF (mLTBP3-proTGFβ1 [11]): 0.000115 s⁻¹
KON (mLTBP1-proTGFβ1 [12]): 1.85E+06 M^−1/s^−1
KOFF (mGARP-proTGFβ1 [13]): 0.000278 s⁻¹
KOFF (mLRRC33-proTGFβ1 [14]): 0.000112 s⁻¹
KON (mLTBP3-proTGFβ1 [15]): 1.20E+06 M^−1/s^−1
B1: Ab46: activation inhibitor of TGFβ1; H-CDR3 VSGHWDYD, L-CDR2 AASGLES, L-CDR3 QQTYGVPLT (Table 3) (antibody, V domains shown)
VH: EVQLLESGGGLVQPGGSLRLSCAASGFTFADYAMTWVRQAPGKGLEWVSAISGSGAATYFADSVKGRFTISRDNSKNTLYLQMNSLRAEDTAVYYCARVSSGHWDYDYWGQGTLVTVSS
VL: DIQLTQSPSSLSASVGDRVTITCRASQSISSYLNWYQQKPGKAPKLLIYAASGLESGVPSRFSGSGSGTDFTLTISSLQPEDFATYYCQQTYGVPLTFGGGTKVEIK
% positive pSMAD2 nuclei in liver (CDHFD mice; 30 mg/kg on Day 1 and Day 3 after ten weeks of CDHFD): Significant reduction in % positive pSMAD2 nuclei
ratio of phosphorylated versus total SMAD2/3 in the medial lobe (ELISA) (CDHFD mice; 3, 10 and 30 mg/kg on Day 1 and Day 3 after ten weeks of CDHFD, tissue Day 5, p<0.05): Significant reduction in pSMAD2/3
reduction in % pSMAD2 nuclei compared to comparable doses of Ab2 (CDHFD mice; data not shown): greater
% pSMAD2-positive nuclei, left lateral lobe ([4]; 3, 10 and 30 mg/kg on Day 1 and Day 3 after 12 weeks of CDHFD, tissue Day 5): suppression of SMAD2 phosphorylation; also recorded: able to suppress phosphorylation of SMAD2
reduction in percentage of pSMAD2-positive nuclei compared with Ab2 ([4]; rat, in vivo): greater
% pSMAD2-positive nuclei ([4]; single dose 10 mg/kg and 30 mg/kg on Day 1, tissue after 48 hours): appeared to fully suppress SMAD2 phosphorylation; also recorded: significant reduction of pSMAD2-positive nuclei
